Measurements as given in publication PMC3000947.

Columns and labels:
purified protein [1] = substrate: Oc1cc(O)c2ccccc2c1; assay: purified protein; details: 2 mM GPP, 50 mM Hepes-NaOH pH 7.5, 5 mM MgCl2, 30 °C
purified protein [2] = substrate: O=C1C(O)=CC(=O)c2c(O)cc(O)cc21; assay: purified protein; details: 2 mM GPP, 50 mM Hepes-NaOH pH 7.5, 5 mM MgCl2, 30 °C

B1: Fur7 (Streptomyces sp. KO-3988) (protein)
chain: MPGTDDVAVDVASVYSAIEKSAGLLDVTAAREVVWPVLTAFEDVLEQAVIAFRVATNARHEGDFDVRFTVPEEVDPYAVALSRSLIAKTDHPVGSLLSDIQQLCSVDTYGVDLGVKSGFKKVWVYFPAGEHETLARLTGLTSMPGSLAGNVDFFTRYGLADKVDVIGIDYRSRTMNVYFAAPSECFERETVLAMHRDIGLPSPSEQMFKFCENSFGLYTTLNWDTMEIERISYGVKTENPMTFFARLGTKVEHFVKNVPYGVDTQKMVYAAVTSSGEEYYKLQSYYRWRSVSRLNAAYIAARDKEST
Km (purified protein [1]): 320 ± 20 µM | kcat (purified protein [1]): 0.13 ± 0.05 × 10^-3 s^-1 | kcat/Km (purified protein [1]): 0.41 M⁻¹ s⁻¹ | Km (purified protein [2]): 48 ± 2 µM | kcat (purified protein [2]): 28 ± 3 × 10^-3 s^-1 | kcat/Km (purified protein [2]): 580 M⁻¹ s⁻¹
